B1: LCP0123 (VHH)
VHH: EVQLVESGGGLVQAGGSLTLSCAMSGGTRPFEDYVMAWFRQATGKEREFVATITWMGETTYYKDSVNGRFAISRDNAENTVALQMNSLEPEDTAVYFCAAHSRSSFSTSGGRYNPRPTEYDYWGQGTQVTVSS
notes: llama anti-C5 VHH, tested as VHH-His fusion; not shown: His-tag
B2: LCP0146 (VHH)
VHH: EVQLVESGGGLVQAGGSLRLSCAASGRAFSDYAMAWFRQAPGKEREFVAGIGWSGGDTLYADSVRGRFTNSKDNAKNRMSLQMNSLKPEDTAVYYCAARQGQYIYSSMRSDSYDYWGQGTQVTVSS
notes: as for B1
B3: LCP0136 (VHH)
VHH: EVQLVESGGGLVQPGESLRLSCAISGFAFTDVGMSWVRQAPGKGLEWVSSISSGSSITTYSDSVKGRFTISRDNARNTLFLQMNSLKPEDTAVYYCGRYYCTGLGCHPRRDSALWGQGTQVTVSS
notes: as for B1
B4: LCP0143 (VHH)
VHH: EVQLVESGGGLVQAGGSLRLSCAAPEMGATINVMAWYRQAPGKQRELVARLPLDNNIDYGDFAKGRFTISRDITRNTVYLQMNNLKPDDTAVYYCNVLLSRQINGAYVHWGQGTQVTVSS
notes: as for B1
B5: LCP0115 (VHH)
VHH: EVQLVESGGGLVQAGGSLRLSCAASGRTFSGILSPYAVGWFRQAPGKGREFVSTITSGGSAIYTDSVKGRFTLSRDNAKDTVYLQMNSLKPEDTAVYYCAVRTRRYGSNLGEVPQENEYGYWGQGTQVTVSS
notes: as for B1
B6: LCP0302 (VHH)
VHH: EVQLVESGGGLVQAGGSLRLSCAASGRTFSGILSAYAVGWFRQAPGKEREFVSTITSGGSTLSADSVKGRFTLSRDNAKDTVYLQMNSLKPEDTAVYYCAVRTWPYGSNRGEVPTENEYGHWGQGTQVTVSS
notes: as for B1
B7: LCP0095 (VHH)
VHH: EVQLVESGGGLVQAGGSLRLSCTASGRTISTTVMAWFRQAPGKEREFVAADHWGDAGTVYADSVKGRFTISRDNAKNTVYLQMNYLKPEDTSVYYCAARPPTYVGTSRDSRAYDYWGQGTQVTVSS
notes: as for B1
B8: LCP0296 (VHH)
VHH: EVQLVESGGGVVQAGDSLTLTCTAPVGTISDYGMGWFRQAPGKEREFVASISWGGMWTDYADSVKGRFTISRDNDKNAVYLRMNSLNAEDTAVYYCGRGRMYRGIGNSLAQPKSYGYWGQGTQVTVSS
notes: as for B1

What was measured:
[1] = target: T1, human complement protein C5 (human, UniProt P01031 19-1676); assay: SPR (Biacore)
T1 construct: Native C5 is a two-chain protein made from one precursor; also called hC5; human C5

[2] = target: T2, cynomolgus monkey (cyno) complement protein C5 (cynomolgus monkey, UniProt A0A2K5U1T1 19-1676); assay: SPR (Biacore)
T2 construct: also called cC5; cyno C5

| Binder | Kd [1] [nM] | koff [1] [s⁻¹] | kon [1] [M⁻¹ s⁻¹] | Kd [2] [nM] | koff [2] [s⁻¹] | kon [2] [M⁻¹ s⁻¹] |
| --- | --- | --- | --- | --- | --- | --- |
| B1 | 1.99 | 0.000216 | 108000 | 3.8 | 0.000381 | 100000 |
| B2 | 0.0435 | 9.75e-05 | 2.24e+06 | 0.0922 | 0.000244 | 2.64e+06 |
| B3 | 1.81 | 0.000882 | 486000 | 0.318 | 0.000251 | 789000 |
| B4 | 0.082 | 5.66e-05 | 691000 | 0.167 | 0.000124 | 741000 |
| B5 | 0.309 | 3.48e-05 | 113000 | 0.107 | 1.02e-05 | 95300 |
| B6 | 0.195 | 2.22e-05 | 114000 | 0.232 | 2.38e-05 | 103000 |
| B7 | 2.5 | 0.000714 | 286000 | 3.69 | 0.00168 | 456000 |
| B8 | 0.417 | 3.9e-05 | 93400 | 1.55 | 0.000106 | 68400 |
